Laboratory results published in patent US12275778 (dated 2025).

What follows are binders tested against cardiac troponin T (recombinant human) (human) (assay: SPR, 37C).

Binder | Kd [pM]
Fab combination 9 (antibody, V domains shown) VH: EVQLQQSGPELVKPGASVKMSCKASGYTFTDYIMKWVKQSHGKSLEWIGDINPNNGETFYNQKFKDKATLTVDKSSSTAYMQLNSLTSEDSAVYYCATRVFDYWGQGTTLTVSS VL: DIVLTQSPASLAVSLGQRATISCKASQSVDYDGTSYMNWFQQKAGQPPKRLIYAASNLESGIPARFSGRGSGTDFALNIHPVEEEDAATYYCQQSNEDPYTFGGGTKLEIKR | 1200
Fab combination 2 (antibody, V domains shown) VH: EVQLQQSGPELVKPGASVKMSCKASGYTFTDYFMKWVKQSHGKSLEWIGDINPNNGETWYNQKFKDKATLTVDKSSSTAYMQLNSLTSEDSAVYYCATRVFDYWGQGTTLTVSS VL: DIVLTQSPASLAVSLGQRATISCKASQSVDYDGTSYMNWFQQKAGQPPKRLIYAASNLESGIPARFSGRGSGTDFALNIHPVEEEDAATYYCQQSNEDPYTFGGGTKLEIKR | 460
Fab combination 7 (antibody, V domains shown) VH: EVQLQQSGPELVKPGASVKMSCKASGYTFTDYFMKWVKQSHGKSLEWIGDINPNNGETFYNQKFKDKATLTVDKSSSTAYMQLNSLTSEDSAVYYCATRVFDFWGQGTTLTVSS VL: DIVLTQSPASLAVSLGQRATISCKASQSVDYDGTSYMNWFQQKAGQPPKRLIYAASNLESGIPARFSGRGSGTDFALNIHPVEEEDAATYYCQQSNEDPYTFGGGTKLEIKR | 450
Fab combination 3 (antibody, V domains shown) VH: EVQLQQSGPELVKPGASVKMSCKASGYTFTDYFMKWVKQSHGKSLEWIGDINPNNGETWYNQKFKDKATLTVDKSSSTAYMQLNSLTSEDSAVYYCATRYFDYWGQGTTLTVSS VL: DIVLTQSPASLAVSLGQRATISCKASQSVDYDGTSYMNWFQQKAGQPPKRLIYAASNLESGIPARFSGRGSGTDFALNIHPVEEEDAATYYCQQSNEDPYTFGGGTKLEIKR | 370
Fab combination 12 (antibody, V domains shown) VH: EVQLQQSGPELVKPGASVKMSCKASGYTFTDYIMKWVKQSHGKSLEWIGDINPNNGETWYNQKFKDKATLTVDKSSSTAYMQLNSLTSEDSAVYYCATRVFDFWGQGTTLTVSS VL: DIVLTQSPASLAVSLGQRATISCKASQSVDYDGTSYMNWFQQKAGQPPKRLIYAASNLESGIPARFSGRGSGTDFALNIHPVEEEDAATYYCQQSNEDPYTFGGGTKLEIKR | 320
Fab combination 11 (antibody, V domains shown) VH: EVQLQQSGPELVKPGASVKMSCKASGYTFTDYIMKWVKQSHGKSLEWIGDINPNNGETWYNQKFKDKATLTVDKSSSTAYMQLNSLTSEDSAVYYCATRYFDYWGQGTTLTVSS VL: DIVLTQSPASLAVSLGQRATISCKASQSVDYDGTSYMNWFQQKAGQPPKRLIYAASNLESGIPARFSGRGSGTDFALNIHPVEEEDAATYYCQQSNEDPYTFGGGTKLEIKR | 1000
Fab combination 1 (antibody, V domains shown) VH: EVQLQQSGPELVKPGASVKMSCKASGYTFTDYFMKWVKQSHGKSLEWIGDINPNNGETFYNQKFKDKATLTVDKSSSTAYMQLNSLTSEDSAVYYCATRVFDYWGQGTTLTVSS VL: DIVLTQSPASLAVSLGQRATISCKASQSVDYDGTSYMNWFQQKAGQPPKRLIYAASNLESGIPARFSGRGSGTDFALNIHPVEEEDAATYYCQQSNEDPYTFGGGTKLEIKR | 620
Fab combination 13 (antibody, V domains shown) VH: EVQLQQSGPELVKPGASVKMSCKASGYTFTDYIMKWVKQSHGKSLEWIGDINPNNGETWYNQKFKDKATLTVDKSSSTAYMQLNSLTSEDSAVYYCATRYFDFWGQGTTLTVSS VL: DIVLTQSPASLAVSLGQRATISCKASQSVDYDGTSYMNWFQQKAGQPPKRLIYAASNLESGIPARFSGRGSGTDFALNIHPVEEEDAATYYCQQSNEDPYTFGGGTKLEIKR | 620
Fab combination 8 (antibody, V domains shown) VH: EVQLQQSGPELVKPGASVKMSCKASGYTFTDYFMKWVKQSHGKSLEWIGDINPNNGETFYNQKFKDKATLTVDKSSSTAYMQLNSLTSEDSAVYYCATRYFDFWGQGTTLTVSS VL: DIVLTQSPASLAVSLGQRATISCKASQSVDYDGTSYMNWFQQKAGQPPKRLIYAASNLESGIPARFSGRGSGTDFALNIHPVEEEDAATYYCQQSNEDPYTFGGGTKLEIKR | 200
Fab combination 5 (antibody, V domains shown) VH: EVQLQQSGPELVKPGASVKMSCKASGYTFTDYFMKWVKQSHGKSLEWIGDINPNNGETWYNQKFKDKATLTVDKSSSTAYMQLNSLTSEDSAVYYCATRYFDFWGQGTTLTVSS VL: DIVLTQSPASLAVSLGQRATISCKASQSVDYDGTSYMNWFQQKAGQPPKRLIYAASNLESGIPARFSGRGSGTDFALNIHPVEEEDAATYYCQQSNEDPYTFGGGTKLEIKR | 230
Fab combination 4 (antibody, V domains shown) VH: EVQLQQSGPELVKPGASVKMSCKASGYTFTDYFMKWVKQSHGKSLEWIGDINPNNGETWYNQKFKDKATLTVDKSSSTAYMQLNSLTSEDSAVYYCATRVFDFWGQGTTLTVSS VL: DIVLTQSPASLAVSLGQRATISCKASQSVDYDGTSYMNWFQQKAGQPPKRLIYAASNLESGIPARFSGRGSGTDFALNIHPVEEEDAATYYCQQSNEDPYTFGGGTKLEIKR | 2.7
Fab combination 15 (antibody, V domains shown) VH: EVQLQQSGPELVKPGASVKMSCKASGYTFTDYIMKWVKQSHGKSLEWIGDINPNNGETFYNQKFKDKATLTVDKSSSTAYMQLNSLTSEDSAVYYCATRVFDFWGQGTTLTVSS VL: DIVLTQSPASLAVSLGQRATISCKASQSVDYDGTSYMNWFQQKAGQPPKRLIYAASNLESGIPARFSGRGSGTDFALNIHPVEEEDAATYYCQQSNEDPYTFGGGTKLEIKR | 1100

The next lines start with the values.

Kd [pM] | Binder
1600 | Fab combination 21 (antibody, V domains shown) VH: EVQLQQSGPELVKPGASVKMSCKASGYTFTDYYMKWVKQSHGKSLEWIGDINPNNGETWYNQKFKDKATLTVDKSSSTAYMQLNSLTSEDSAVYYCATRYFDYWGQGTTLTVSS VL: DIVLTQSPASLAVSLGQRATISCKASQSVDYDGTSYMNWFQQKAGQPPKRLIYAASNLESGIPARFSGRGSGTDFALNIHPVEEEDAATYYCQQSNEDPYTFGGGTKLEIKR
1200 | Fab combination 23 (antibody, V domains shown) VH: EVQLQQSGPELVKPGASVKMSCKASGYTFTDYYMKWVKQSHGKSLEWIGDINPNNGETWYNQKFKDKATLTVDKSSSTAYMQLNSLTSEDSAVYYCATRYFDFWGQGTTLTVSS VL: DIVLTQSPASLAVSLGQRATISCKASQSVDYDGTSYMNWFQQKAGQPPKRLIYAASNLESGIPARFSGRGSGTDFALNIHPVEEEDAATYYCQQSNEDPYTFGGGTKLEIKR
460 | Fab combination 19 (antibody, V domains shown) VH: EVQLQQSGPELVKPGASVKMSCKASGYTFTDYYMKWVKQSHGKSLEWIGDINPNNGETFYNQKFKDKATLTVDKSSSTAYMQLNSLTSEDSAVYYCATRVFDFWGQGTTLTVSS VL: DIVLTQSPASLAVSLGQRATISCKASQSVDYDGTSYMNWFQQKAGQPPKRLIYAASNLESGIPARFSGRGSGTDFALNIHPVEEEDAATYYCQQSNEDPYTFGGGTKLEIKR
1600 | Fab combination 18 (antibody, V domains shown) VH: EVQLQQSGPELVKPGASVKMSCKASGYTFTDYYMKWVKQSHGKSLEWIGDINPNNGETFYNQKFKDKATLTVDKSSSTAYMQLNSLTSEDSAVYYCATRYFDYWGQGTTLTVSS VL: DIVLTQSPASLAVSLGQRATISCKASQSVDYDGTSYMNWFQQKAGQPPKRLIYAASNLESGIPARFSGRGSGTDFALNIHPVEEEDAATYYCQQSNEDPYTFGGGTKLEIKR
1100 | Fab combination 20 (antibody, V domains shown) VH: EVQLQQSGPELVKPGASVKMSCKASGYTFTDYYMKWVKQSHGKSLEWIGDINPNNGETFYNQKFKDKATLTVDKSSSTAYMQLNSLTSEDSAVYYCATRYFDFWGQGTTLTVSS VL: DIVLTQSPASLAVSLGQRATISCKASQSVDYDGTSYMNWFQQKAGQPPKRLIYAASNLESGIPARFSGRGSGTDFALNIHPVEEEDAATYYCQQSNEDPYTFGGGTKLEIKR
540 | Fab combination 17 (antibody, V domains shown) VH: EVQLQQSGPELVKPGASVKMSCKASGYTFTDYYMKWVKQSHGKSLEWIGDINPNNGETWYNQKFKDKATLTVDKSSSTAYMQLNSLTSEDSAVYYCATRVFDYWGQGTTLTVSS VL: DIVLTQSPASLAVSLGQRATISCKASQSVDYDGTSYMNWFQQKAGQPPKRLIYAASNLESGIPARFSGRGSGTDFALNIHPVEEEDAATYYCQQSNEDPYTFGGGTKLEIKR
0.0038 | Fab combination 22 (antibody, V domains shown) VH: EVQLQQSGPELVKPGASVKMSCKASGYTFTDYYMKWVKQSHGKSLEWIGDINPNNGETWYNQKFKDKATLTVDKSSSTAYMQLNSLTSEDSAVYYCATRVFDFWGQGTTLTVSS VL: DIVLTQSPASLAVSLGQRATISCKASQSVDYDGTSYMNWFQQKAGQPPKRLIYAASNLESGIPARFSGRGSGTDFALNIHPVEEEDAATYYCQQSNEDPYTFGGGTKLEIKR
580 | parental Fab (TnT M-7) (antibody, V domains shown) VH: EVQLQQSGPELVKPGASVKMSCKASGYTFTDYYMKWVKQSHGKSLEWIGDINPNNGETFYNQKFKDKATLTVDKSSSTAYMQLNSLTSEDSAVYYCATRVFDYWGQGTTLTVSS VL: DIVLTQSPASLAVSLGQRATISCKASQSVDYDGTSYMNWFQQKAGQPPKRLIYAASNLESGIPARFSGRGSGTDFALNIHPVEEEDAATYYCQQSNEDPYTFGGGTKLEIKR
3400 | Fab combination 16 (antibody, V domains shown) VH: EVQLQQSGPELVKPGASVKMSCKASGYTFTDYIMKWVKQSHGKSLEWIGDINPNNGETFYNQKFKDKATLTVDKSSSTAYMQLNSLTSEDSAVYYCATRYFDFWGQGTTLTVSS VL: DIVLTQSPASLAVSLGQRATISCKASQSVDYDGTSYMNWFQQKAGQPPKRLIYAASNLESGIPARFSGRGSGTDFALNIHPVEEEDAATYYCQQSNEDPYTFGGGTKLEIKR
